Data on 7 molecules can be found in article PMC11602245 (Journal of Peptide Science, 2024).

Starred links: 1 amine or outer side, 2 acyl side, 3 side chain; linkers in the order of their positions; H or OH if unused. Positions of bridges follow the written chain, without caps; N, C: chain ends. Non-standard residues stand in square brackets, D forms with d. Residues, ends and D or L forms follow the SMILES beside them. *: point of attachment. X1 = NC(=O)C[C@H](N[*:1])c1cn([C@@H](Cc2ccccc2)C(=O)[*:2])nn1; DOTA = O=C(O)CN1CCN(CC(=O)O)CCN(CC(=O)*)CCN(CC(=O)O)CC1; NMeF = CN[C@@H](Cc1ccccc1)C(=O)O

As a reminder, the fraction remaining is the share of the starting amount still present when the sample was taken. Lower therefore signals more turnover.

Data set [1] is described as follows: Metabolic stability in human plasma. The data set is classed as in vitro ADME. As for the experimental part:
The human plasma used in the in vitro stability assays was purchased from Sigma‐Aldrich (H4522‐20ML).
The stability assays were conducted by incubating the ^111In‐labeled peptide conjugates in human plasma at 37°C for 24 h (n = 2). The detailed description of the procedure is described elsewhere.[13]
In order to assess the proteolytic stability of the new radiolabeled peptide conjugates, in vitro stability studies were conducted in blood plasma. [^111In]In‐XG1 and [^111In]In‐XG1‐A/B/C were incubated in human plasma at 37°C, and samples were taken after 24 h for their analysis by γ‐HPLC (Figure 3). […] This hypothesis is also supported by previously reported data that identified Thr^10‐Phe^11 as one of the main cleavage sites of the native SST‐14.[15] […] To better understand the degradation of [^111In]In‐XG1‐C over time, the stability was also determined after 4 h incubation in plasma (Figure 3D), after which only 27% of the original radiopeptide remained intact. […] We hypothesize that the incorporation of the methylated amino acid (N‐Me‐Phe^11) leads to a conformation of the peptide that facilitates the accessibility of amide bonds to proteases. Similar observations have been reported for other triazolo‐peptidomimetics.[11] […] For example, one of the main enzymes involved in the degradation of the native SST‐14 is neprilysin (NEP), a membrane‐bound metalloprotease abundantly expressed in various tissues.[21], [22] The role of this enzyme in the degradation of peptides cannot be contemplated with in vitro plasma stability assays but would have to be assessed in vivo (e.g., mice).[23]

The conditions of data set [2]: cited from earlier work.
Another data set can be described thus: human plasma. The following applies: 37°C, up to 24 h.
Data set [3] deals with T1, SST2R‐overexpressing AR42J cells (Rattus norvegicus, UniProt P30680).
T1 construct: incubating the ^111In‐labeled peptide conjugates with SST2R‐overexpressing AR42J cells in six well plates; host or cells: AR42J cells
As to the kind of experiment: Cell binding and internalization studies. The data set is classed as cell-based. The following applies: after 2 h, corresponds to the determined unspecific binding (blocking experiments). The protocol: The AR42J cell line was purchased from the American Type Culture Collection (ATCC).
The cell binding and internalization assays were performed by incubating the ^111In‐labeled peptide conjugates with SST2R‐overexpressing AR42J cells in six well plates as previously described (n = 2–3 in triplicates).[13]
The binding of radiolabeled somatostatin derivatives to multiple SSTRs is of high interest because it allows to address a wide range of cancers with distinctive SSTR‐subtype expression patterns.[24] Yet, SST2R is of major medical importance because it is over‐expressed or co‐expressed by most cancer types (e.g., NETs).[25] Thus, we first focused on SST2R by conducting cell binding and internalization experiments with the SST2R‐expressing cell line AR42J. In order to determine the specificity of the binding and internalization of the radiolabeled peptides, the octapeptide TATE (DPhe^1‐cycle(Cys^2‐Phe^3‐DTrp^4‐Lys^5‐Thr^6‐Cys^7)Thr^8) was used in excess for blocking experiments. […] These values are in accordance with previously reported data.[13] […] From the total applied activity, <1% was found at the cell membrane and internalized, which corresponds to the determined unspecific binding (blocking experiments). See Figure S9 for the results of the binding and internalization studies. […]

T1 sequence (P30680 whole entry): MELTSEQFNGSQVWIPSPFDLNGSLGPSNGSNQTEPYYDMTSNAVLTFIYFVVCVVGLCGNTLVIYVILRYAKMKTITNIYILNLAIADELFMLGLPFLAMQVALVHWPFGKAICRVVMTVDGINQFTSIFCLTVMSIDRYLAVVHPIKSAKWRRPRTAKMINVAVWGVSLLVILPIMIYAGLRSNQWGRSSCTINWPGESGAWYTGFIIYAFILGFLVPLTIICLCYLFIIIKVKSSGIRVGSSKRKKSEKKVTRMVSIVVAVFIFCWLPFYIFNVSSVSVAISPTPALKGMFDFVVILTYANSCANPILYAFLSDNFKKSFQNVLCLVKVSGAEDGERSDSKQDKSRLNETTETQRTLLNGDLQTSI

In the case of `C[C@H](NC(=O)CN1CCN(CC(=O)O)CCN(CC(=O)O)CCN(CC(=O)O)CC1)C(=O)NCC(=O)N[C@H]1CSSC[C@@H](C(=O)O)NC(=O)[C@H](CO)NC(=O)[C@H]([C@@H](C)O)NC(=O)[C@H](Cc2ccccc2)NC(=O)[C@H]([C@@H](C)O)NC(=O)[C@H](CCCCN)NC(=O)[C@@H](Cc2c[nH]c3ccccc23)NC(=O)[C@H](Cc2ccccc2)NC(=O)[C@H](Cc2ccccc2)n2cc(nn2)[C@H](CC(N)=O)NC(=O)[C@H](CCCCN)NC1=O` [[^111In]In‐XG1, [DOTA,Asn^5‐Ψ[Tz]‐Phe^6,DTrp^8]SST‐14, metal not drawn] ({DOTA}-AGCK[X1]F[dW]KTFTSC-OH; disulfide 3-13), in data set [1], the “major radiometabolite at rt = 6.4 min” value was found to be 35.3%. The amount remaining at 24 h in data set [1] (human, plasma) was 56%.
Turning to `C[C@H](NC(=O)CN1CCN(CC(=O)O)CCN(CC(=O)O)CCN(CC(=O)O)CC1)C(=O)NCC(=O)N[C@H]1CSSC[C@@H](C(=O)O)NC(=O)[C@H](CO)NC(=O)[C@H]([C@@H](C)O)NC(=O)[C@H](Cc2ccccc2)NC[C@H]([C@@H](C)O)NC(=O)[C@H](CCCCN)NC(=O)[C@@H](Cc2c[nH]c3ccccc23)NC(=O)[C@H](Cc2ccccc2)NC(=O)[C@H](Cc2ccccc2)n2cc(nn2)[C@H](CC(N)=O)NC(=O)[C@H](CCCCN)NC1=O` [[^111In]In‐XG1‐B, [DOTA,Asn^5‐Ψ[Tz]‐Phe^6,DTrp^8,Thr^10‐Ψ[NH]‐Phe^11]SST‐14, metal not drawn], the fraction remaining at 24 h in data set [1] (human, plasma) is above 97%.
`C[C@H](NC(=O)CN1CCN(CC(=O)O)CCN(CC(=O)O)CCN(CC(=O)O)CC1)C(=O)NCC(=O)N[C@H]1CSSC[C@@H](C(=O)O)NC(=O)[C@H](CO)NC(=O)[C@H]([C@@H](C)O)NC(=O)[C@H](Cc2ccccc2)N(C)C(=O)[C@H]([C@@H](C)O)NC(=O)[C@H](CCCCN)NC(=O)[C@@H](Cc2c[nH]c3ccccc23)NC(=O)[C@H](Cc2ccccc2)NC(=O)[C@H](Cc2ccccc2)n2cc(nn2)[C@H](CC(N)=O)NC(=O)[C@H](CCCCN)NC1=O` [[^111In]In‐XG1‐C, [DOTA,Asn^5‐Ψ[Tz]‐Phe^6,DTrp^8,N‐Me‐Phe^11]SST‐14, metal not drawn] ({DOTA}-AGCK[X1]F[dW]KT[NMeF]TSC-OH; disulfide 3-13) gave an amount remaining at 4 h in data set [1] (human, plasma) of 27%.
“Ala^1 Gly^2 Cys^3 Lys^4 Asn^5 Phe^6 Phe^7 DTrp^8 Lys^9 Thr^10 Phe^11 Thr^12 Ser^13 Cys^14”: the cleaved bond entry in data set [2] is “Thr10-Phe11, major”.
“[DOTA,Asn^5‐Ψ[Tz]‐Phe^6,DTrp^8,Thr^10‐Ψ[NH]‐Phe^11]SST‐14”: the not cleaved entry in the data set “human plasma” is on record as “more than 97% of intact peptide after 24 h”.
Take “[DOTA,Asn^5‐Ψ[Tz]‐Phe^6,DTrp^8,β‐Phe^11]SST‐14”: the not cleaved entry in the data set “human plasma” is given as “more than 97% of intact peptide after 24 h”.
“[DOTA,Asn^5‐Ψ[Tz]‐Phe^6,DTrp^8,β‐Phe^11]SST‐14 [[^111In]In‐XG1‐A]”: the “total applied activity found at the cell membrane and internalized” value in data set [3] is on record as below 1%.
